Experiments:
S. suis strain 7997 [1] = assay: PlySs2 storage stability, killing effectiveness; format: physicochemical, Streptococcus suis
Procedure: FIG. 9. The stability of purified PlySS2 was determined by evaluating killing effectiveness against strain 7997 after storage at 37° C. for up to 48 hours in buffer.
FIG. 10. Killing effectiveness, assessed by OD600 growth of strain 7997 upon treatment with PlySs2 lysin after lysin storage at −80° C. for up to 7 months in buffer.
The stability of purified PlySs2 lysin was determined upon maintenance at 37° C. for up to 48 hours in buffer. The PlySs2 lysin is >90% stable up to 24 hours and maintains at least 50% activity after 48 hours.
Stability of the PlySS2 lysin was evaluated on freezer storage at −80° C. The PlySs2 lysin retains essentially 100% activity on storage in buffer for up to at least 7 months at −80° C. (FIG. 10).

[2] = test system: purified S. suis peptidoglycan; assay: PlySs2 bond specificity, mass spectroscopy of digest; format: biochemical, Streptococcus suis; settings: overnight at 37° C.
Procedure: Investigations to determine the bond catalyzed by PlySs2 lysin have been undertaken. PlySs2 was incubated with purified S. suis peptidoglycan stripped of lipotechoic acid and carbohydrates overnight at 37° C. and the product submitted for mass spectroscopy.

S. suis strain 7997 [3] = assay: PlySs2 lytic activity at various concentrations, OD600; format: cell-based, Streptococcus suis
Procedure: FIGS. 15A and 15B (A) PlySs2 has acute lytic activity against S. suis strain 7997 at, or above 8 ug/mL. (B) Activity of PlySs2 assessed in vitro against S. suis strain 5735.
(§1) Readings (OD600) were taken for each well in a spectrophotometer every minute over an hour. The OD density indicates the amount of bacterial cell growth in the microtiter well.
(§2) This activity test was first determined for the pathogenic S. suis strain 7997 with various concentrations of PlySs2 (FIG. 15A). Specific activity of purified PlySs2 lysin was also assessed in vitro against S. suis strain S735 (FIG. 15B). […] Additional results are tabulated below in TABLE 1.

[4] = test system: methicillin resistant Staphylococcus aureus strains (MRSA); assay: PlySs2 in vitro growth reduction and killing; format: cell-based
Procedure: as §1, §2

[5] = test system: vancomycin intermediate sensitivity Staphylococcus aureus (VISA); assay: PlySs2 in vitro test, standard MIC analysis; format: cell-based; settings: comparable in vitro tests (FIG. 18)
Procedure: (§3) FIG. 18. PlySS2 was tested by standard MIC analysis for its ability to kill strains of staphylococci. Included in the testing were resistant staphylococci such as Vancomycin resistant (VRSA), Vancomycin intermediate (VISA) and methicillin resistant (MRSA) staphylococci. The three VRSA strains tested represent half of all known isolates.

[6] = test system: vancomycin resistant Staphylococcus aureus (VRSA); assay: PlySs2 in vitro test, standard MIC analysis; format: cell-based; settings: comparable in vitro tests (FIG. 18)
Procedure: as §3

S. aureus MW2 and 8325 = assay: Assessment of resistance, incrementally increasing concentrations; format: cell-based; settings: concentration doubled daily up to 4× MIC over an 8-day period
[7] = test system: cultures from the oral cavities of rats; assay: Oral cavity microbiota study, clearing zones on lawns; format: cell-based; settings: 6 cultures, 10 μL drops on BHI agar; the cleared culture confirmed as S. aureus
S. suis strain 7997 [8] = assay: PlySs2 biochemical characterization, OD600 turbidity

B1: PlySs2: S. suis prophage lysin from strain 89/1591, amino acid sequence SEQ ID NO:3 (protein, listed as Streptococcus suis)
chain: MTTVNEALNNVRAQVGSGVSVGNGECYALASWYERMISPDATVGLGAGVGWVSGAIGDTISAKNIGSSYNWQANGWTVSTSGPFKAGQIVTLGATPGNPYGHVVIVEAVDGDRLTILEQNYGGKRYPVRNYYSAASYRQQVVHYITPPGTVAQSAPNLAGSRSYRETGTMTVTVDALNVRRAPNTSGEIVAVYKRGESFDYDTVIIDVNGYVWVSYIGGSGKRNYVATGATKDGKRFGNAWGTFK
activity maintained (S. suis strain 7997 [1]; 37° C. in buffer, after 48 hours): at least 50% | stability of purified lysin (S. suis strain 7997 [1]; 37° C. in buffer, up to 24 hours): > 90% | activity retained on freezer storage (S. suis strain 7997 [1]; −80° C. in buffer, up to at least 7 months): ~100% | bond catalyzed (cleavage type) [2]: N-acetylmuramoyl,-L-alanine amidase | concentration with acute lytic activity (S. suis strain 7997 [3]): ≥ 8 µg/mL | activity against MRSA strains [4]: reduction in growth and killing | effectiveness against VISA strains [5]: similarly effective | effectiveness against VRSA strains [6]: similarly effective | development of resistance (4-fold increase in MIC) (S. aureus MW2 and 8325): Neither S. aureus strain developed resistance | clearing zone around PlySs2 drops on lawns of rat oral cavity cultures [7]: only appeared on one culture | NaCl concentration of greatest activity (S. suis strain 7997 [8]; S. suis strain 7997): 0 mM | pH up to which acute activity is shown (S. suis strain 7997 [8]; S. suis strain 7997, Bis-tris propane (BTP) buffer): ≤ 9.7 | pH of strongest activity (optimal pH) (S. suis strain 7997 [8]; S. suis strain 7997, phosphate/citrate buffer): 8.0
